The source of these data is the nanobody polyreactivity screen of Harvey et al. (2022).

The data set in a line: yeast display, Sf9 membrane polyspecificity reagent, FACS + sequencing; frameworks hold sequencing errors. The method in brief:
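Nanobodies came from a synthetic yeast display library in Saccharomyces cerevisiae BJ5465, induced with galactose for 36–48 hours and stained for 1 hour at 4 °C with 10% biotinylated, detergent-solubilized Sf9 membrane reagent. Cells were enriched on streptavidin microbeads and then FACS-sorted, with low and high (top ~1%) gates set on anti-HA fluorescence for expression and streptavidin fluorescence for reagent binding. Each polyreactivity label reflects the gate a clone came from. Genes were amplified by colony PCR, sequenced by MiSeq 2 × 250 and filtered by CDR length.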
Turning to “QVQHVESGGALVQAGGSLRLSCAASGLIYALSAMGWDRQAPGKEMELVAAIDWSGGSTYYADSVKGRFTISRDNAKNTVYVQMNCLKPEDTAVYYCAADISSSPGNDYWGQGTQLTVSS”, the “polyreactivity (PSR sort gate)” value was “high polyreactivity”. For “QFQLVESGGGLVQAGGILRLSCDASGSILARYALGWYRQAPGKERVLVAAISSRGGSTYYADSVKGRFSISRDNAKNTVYLQMNSLKPEDTAVYYCASYVYLQVEYDYWGQGTQVTVSS” the value was “low polyreactivity”; for “QVQLVESAGGLVQAAGSLRLSCAASGSIFSTNAMGWYRQAPGKERELVAAITYRGRTFYADSVKGRFTISRDNAKNTVYLQMNSLKPEDTAVYYCNAVGISWFGYLKAYVYWGKGTQVTVSS”, “high polyreactivity”; for “QDQLVESGGGLVQAGGRLRLSCAASGLIFENYAMGWYRQSPGKERDLVAAITTSGGSTYYADSVKGRFTISRDNAKNTVYLQMNSLKPEDTAVYDCAAVGVRSRYYGYDYWGQGTLVTVSS”, “high polyreactivity”.

Turning to “QVQLVESGGGLVQAGGSLRLSCAASGTTFSPNAMGWYRQAPGKERELVAAIRGSGSRTYADSVKGRFTISRDNAKNSVYLQMNSLKPEDTAVYYCAAEWIYDTDYWYYSYYYWGQGTQVTVSS”, the “polyreactivity (PSR sort gate)” value is reported as “low polyreactivity”. For “QVELQVSGGGLVRAGGSLRLSCAASGNIFDADIMGWYRQAPGKERELVASITGGGSTSYAESAKGRFTISRDNAKNAVYLQMNSLKPEDTAVYYCNAYFIYEGGWYYKAQYDYWGQGTQVTVSS” the value was “low polyreactivity”; for “QVQLVESGGGLVQAGGSLRLSCAASGRTFRANDMGWYRQAPGKERELVAAISQSGGSTYYADSVKGRFTISRDNAKNTVYFQMNSLKPEDTAVYDCNALGRISNHTLYDYWGQGTQVTVSS”, “low polyreactivity”. In the case of “QVQLVESGGGLVQAGGSLRLSCAASGRTFSKNAMGWYRQAPGKERELVADISRRGGRTYYADSVNGRFTISRDNAKNTVYLQMNSLKPEDTAVYYCAARTYRQPYYILDYYWGQGTQVTVSS”, the “polyreactivity (PSR sort gate)” value is given as “high polyreactivity”. For “QVQLVESGGGLVQAGGSLRLSCAASGSTFPYYAMGWYRQAPGKERELVAAISKSGGSTYYADSVKGRFTISRDNAKNTVYLQMNSLKPEDTAVYYCAAGPRYRYYSGWYDYWGQGTQVTVSS” the value was “high polyreactivity”; for “QVQLVESGGGLVQAGGSLRLSCAASGSIFIGYAMGWYRQAPGKERELVAAITNGGRTYYADSVKGRFTISRDNAKNTVYLQMNSLKPEDTAVYYCAAVPSQTYRRTPYLWHDYWGQGTQVTVSS”, “high polyreactivity”; for “QVQLVESGGGLVQAGGSLRLSCAASGRTFWYYAMGWSRQAPGKERELVAGITFTGGRTYYADSVKGRFTISRDNAKNTVYLQMNSLKPEDTAVYYCAAAGLDVGRKDRDGYWGQGTQVTVSS”, “low polyreactivity”. Then “QVQLVESGGGLVQAGGSLRLSCAASGRIYTHYAMGWYRQAPGKERELVAAISYRGGSTYYADSVKGRFTISRDNAKNTVYLQMNRLKPEATAVYYCNKYRFVYSLDDYWGQGIQVTVSS”, with “high polyreactivity”; and “QVQLVESGAGLVKAGGSLRLSSAASGSTFGEYDMGWYRQAPGKERELVASITFSAGSTDYADSVKGRFTISRDNAKNTVYLQMNSLNPEDTAVYYCAADGWWPWEYDYWGQGTQGTVSS”, with “low polyreactivity”. Then “QVQLVESGGGLVQAGGSLRLSCAASGSTIAYYAMGWDRQAPGKERELVAVINGITGSTYYADSVKGRFTISRDNEKNTVYLQMNSLKPEDTAVYYCNADYADVTDEGDYWGQGTQVTVSS”, with “low polyreactivity”; and “QVQLVESGGGIVQAGGSLRLSCAASGSIVRGYAMGWYRQAPGKERELVAAITFSGGSTYADSVKGRFTISRDNAKNTVYLQMNSLKPEDTAVYYCAAKRTGHNWFTVYPYYSWGQGTQVTVSS”, with “low polyreactivity”; and “QVQLVESGGGLVQAGGSLRLSCAASGRIFYKYAMGWYRPAPGKERELVASITRSGTSTDYADSVKGRFTISRDNAKNTVYLQMNSLKPEDTADYYCAKRFFSLNGYGYDYWGLGTQVTVSS”, with “high polyreactivity”.

Turning to “QVQLVESGGGLVLAGGSLRLSSAASGFTFSPYAMGWYRQAPGKERELVPAISASGGRTYYADSVKGRFTISRDYAKNTVYLQMNSLKPEDTAVYYCAAKLYDSGGRYWYDYWGQGTQVTVSS”, the “polyreactivity (PSR sort gate)” value is “high polyreactivity”.

Regarding “QVQHVESGGGLVQAGRSLRLICAASGRTFSRYALGWSRQAPGKERELVASIRSGGSTNYADSVKGRFTISRDNAKNTVYLQMNSLKPEDSAVYYCAKRGRLRNYDYWGQGTQVTVSS”, the “polyreactivity (PSR sort gate)” value is recorded as “high polyreactivity”. Take “QVQLVESGGGLVQAGGSLRLSCAASGITFSGNAMGWYIQARGKERELVAGISRRGGSTYYADSVKGSFTISRDNAKNTVYLQINCLKPEATAVYYCADGRDRYRGVAYDYWGQGTQVTVSS”: the “polyreactivity (PSR sort gate)” value is listed as “high polyreactivity”.

Take “QVQLVESGGGLVQAGGSLRLSCAASGSIFDVNGMGWYRQAPGKERELVATISSDGSTNYADSVKGRFTISRDNAKNTVYLQMNSLKPEDTAVYYCAADRHQVSVISTEVYWGQGTQVTVSS”: the “polyreactivity (PSR sort gate)” value is listed as “low polyreactivity”. As to “QVQLVESGGGLVQAGGSLRLSCAASGFTFAYYAMGWYRQAPGKERELVAAITRGGGRTFYADSVKGRFTISRDNAKNTVYLQMNSLKPEDTAVYYCAAVKDTTNSRGYGYWGQGTQVTVSS”, the “polyreactivity (PSR sort gate)” value was “high polyreactivity”.

For “QVQLVESGGGLVQAGGSLRLSCAASGSIFTPYVMGWYRQAPGKEREFVAAITQRGGRTYYADSVKGRFTISRDNAKNTVYLQMNSLKPEDTAVYYCAKTSVSRTYHRSAYDYWGQGTQVTVSS”, the “polyreactivity (PSR sort gate)” value is given as “high polyreactivity”. As for “QVQLVESGGGLVQAGGSLRLSCAASGRTFFTNALGGYRQAPGKVRELVASINSGGNTTYADSVKGRFTISRDNAKNTVYLQINSLKPEDTAVSYCAAVRSAQRWRRYYYGGQGTQVTVSS”, the “polyreactivity (PSR sort gate)” value was “low polyreactivity”. Then “QVQLVESGGGLVQAGGSLRLSCAASGLTFYGYTMGWSRQAPGKERELVAAISWSGGNTYYADSVKGRFTISRDNEKNTVYLQMNSLKPEDTAVYYCAAEHWTYDWVDYWGQGTQVTVSS”, with “low polyreactivity”. Regarding “QVQLVESGGGLVQAGGSLRLSCAASGRILASYAMGWYRQAPGKERELVAAIRYRGSTSYADSVKGRFTISRDNAKNTVYLQMNSLKPEDTAVYYCAAKWHVRGRGARYRYDYDYWGQGTQVTVSS”, the “polyreactivity (PSR sort gate)” value is reported as “low polyreactivity”. Then “QVQLVESGGGLVQAGGSLRLSCAASGSTFPSNVMGWYRQAPGKERELVAAITWSGGRTYYADSVKGRFTISRDNAKNTVYLQMNSLKPEDTAVYYCAVRSSYVRYDYWGKGTQVTVSS”, with “high polyreactivity”; and “QVQLVESGGGLVQAGGSLRLSCAASGRTIYYYAMGWYRQAPGKERELVAAINYGSGGSTYYADSVKGRFTISRDNAKNTVYLQMNSLKPEDTAVYYCNARRQDWPRKAYGYWGQGTQVTVSS”, with “high polyreactivity”; and “QVKLVESGGGLVQAGGSLRLSCSASGSIITHNTMVWYRQAPGKERELVASIDSGASTNYADSVKWRFTISRDNAKNSVYLLMNSLKPEDTAVYYCAADDANFRYRDDYWGQGTQVTVSS”, with “low polyreactivity”.

For the sequence “QVQLVESGGGLVQAGGSLRLSCAASGLIFYRYAMGWYRQAPGKERELVAAISRSGSSTYYADSVKGRFTISRDNAKNTFYLQINSLKPEDTAVYYCNAGYGWIWDDRGYWGQGTQVTVSS”, the “polyreactivity (PSR sort gate)” value is recorded as “high polyreactivity”. For “QVQLVESGGGLVQAGGSLRLSCAASGRTLGIYAMGWYRQAPGKERELVADISRDSSTYYADSVKGRFTISRDNAKNTVYLQKNSLKPEDTAVYYCNADQTPRDVTDWWYDYDYWGQGSQVTVSS” the value was “low polyreactivity”; for “QVQLVESGGGLVQAGGSLRLSCAASGSIFKYNAMGWYRQAPGKERELVAAITYSGGSTYYADSVKGRFTISRDNAKNTVYLQMNSLKPEDTAVYYCNAYRRFSAFDYWGQGTQVTVSS”, “high polyreactivity”; for “QVQLVESGGGLVQAGGSLRLSCAASGSTFVPNAMGWYRQAPGKEREFVAAIRVSCDNTYYADSVKGRFTISRDNAKNTDYLQMNSLKPEDTAVYYCAATGTVLGSVDYWGQGSQVTVSS”, “low polyreactivity”. Turning to “QVQLVESGGGLVQAGGSLRLSCAASGSTFRWYAMGWYRQAPGKERELVAAIRSSGGSTYYADSVKGRFTISRDNAKNTVYLQMNSLKPEDTAVYYCNTYPARNFYSVAGGYWGQGTQVTVSS”, the “polyreactivity (PSR sort gate)” value is “low polyreactivity”.

As for “QVRLVESGGGLVQAGCSRRLSCAATGRFFAYNSMGWYRQAPGKEMEWVAAISSTGGSTYYADSVKGRFTISRDNAKNTVYLQMNSLKTEDTAVYYCAAAWCYRYSSYDYWGQGTQVTVSS”, the “polyreactivity (PSR sort gate)” value is “low polyreactivity”. Consider “QVQLVESGGGLVQAGGSLRLSCAASGLISLYYAMGWYRQAPGKERELVARITGSGGDTYYADSVKGRFTISRDNAKNTVYLQMNSLKPEDTAVSYCAAPALDWGQGTQVTVSS”, for which the “polyreactivity (PSR sort gate)” value was “low polyreactivity”.

On to “QVQLVESGGGLVQAGGSLRYSCAASGSIFYWYAMGWDRQAPGKERELVAGITYSGGNTYYADSVKGRFTISRDNAKNTVYLQMNSLKPEDTAVYDCAATRGYWRKWRMDYWGQGTQVTVSS”, for which the “polyreactivity (PSR sort gate)” value is “high polyreactivity”. Then “QVQLVESGGGIVQSGGSLGLSCAASGYTFRTNVMGWYRQAPGKERELVATINWRGGSTYYADSVKGRFTISRDTAKNTVYLQMNSLKPEDTAVYYCAKTYSYYRTMDYWGQGTQVTGSS”, with “low polyreactivity”; and “QVQLVESGGGLDQAGGSLRLSCAASGITFKSYAMGWYRQAPGKERELVAAITYRSGSTYYADSVKGRFTISRDNAKNTVYLQMNSLKPEDTAVYYCAVGGKFQIQTYYQRYNYWGQGTQVTVSS”, with “high polyreactivity”. Then “QVQLVESGGGLVQAGGSLRLSCAASGRTSSVYAMGWYRQAPGKESELVAAINRSDGGTYYADSVKGRFTISRDNAKNTVYLQMNSLKPEDTAVYYCARRYYYQYRYDYWGQGTQVTVSS”, with “high polyreactivity”; and “QVQLVESGGGLVQAGGSLRLSCAASGSTLYGNVMGWYRQAPGKESELVATINRGGSTNYADSVKGRFTISRDNAKNTVYLQMNSLKPEDTAVYYCAARAFAWYYLEDYWGQGTQVTVSS”, with “low polyreactivity”.

Take “QVQLVESGGGLVQAGGSLRLICAASGRTFRGNAKGCYRQAPGKERELVAAISGRGTNTYYADSVKGRFTISRDNAKNTVYLQMNSLKPEDTAVYYCAKVFYSYRDHYDYWGQGTQVTVSS”: the “polyreactivity (PSR sort gate)” value is “high polyreactivity”.
